Measured values as given in US6600012.

Target: HLA.A2 on T2 mutant cells
Assay: T2 cell HLA.A2 upregulation assay, flow cytometry with MA2.1

Binder: FLPSDYFPSV (modifications not checked) […, positive control peptide]
- % Change in mean channel intensity: 428%
